Experimental findings from US20250236653A1 (ONKO INNATE, published 2025) are described below.

Substitutions are numbered along the chain they refer to. Values joined by “and” are separate entries in the source; they are usually repeats but may differ in a detail not shown here. Equal entries are not always repeated.

The target of assay [1] is T1, cynomolgus monkey OX40 (cynomolgus monkey).
T1 construct: whole, on cells; also called cOX40; cynomolgus OX40
Nature of the assay: flow cytometry on cOX40-Jurkat-NF-κB cells. In general terms: Flow cytometry measures light scatter and fluorescence of single cells or particles in a stream.

The target of assay [2] is T2, human OX40 (human, UniProt P43489 29-277).
T2 construct: whole, on cells; also called hOX40
T2 sequence (looked up): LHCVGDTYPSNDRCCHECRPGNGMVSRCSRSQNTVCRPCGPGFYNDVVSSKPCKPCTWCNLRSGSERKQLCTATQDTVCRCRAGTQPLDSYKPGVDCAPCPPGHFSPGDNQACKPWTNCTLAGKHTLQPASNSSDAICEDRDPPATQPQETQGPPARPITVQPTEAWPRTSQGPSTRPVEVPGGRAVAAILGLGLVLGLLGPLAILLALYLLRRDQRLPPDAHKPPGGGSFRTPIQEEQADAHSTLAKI
Nature of the assay: flow cytometry, monovalent fusion protein on hOX40-Jurkat-NF-κB cells.

The target of assay [3] is T2, human OX40. The assay is described as follows: competition, flow cytometry: inhibition of 2.5 nM A647-labelled OX40L-Fc binding to hOX40-Jurkat-NF-κB cells. As for the experimental part:
To investigate whether any of BGB-A445, 20E5, or 12H3 competed with OX40L for the OX40 binding site, we assessed the capacity of these clones, either in traditional IgG1 monospecific, bivalent mAb format or as bispecific, monovalent IL-12 ABD fusion proteins, to block binding of OX40L to hOX40-Jurkat-NF-κB cells. For the experiment, 30,000 hOX40-Jurkat-NF-κB cells were pre-incubated with 0-450 nM mAb or IL-12 ABD fusion protein for 10 minutes on ice prior to being stained for an additional 10 minutes on ice with 2.5 nM OX40L-Fc (Sino Biological, catalogue number 13127-H01H) that had been coupled to an A647 fluorophore using a Zenon Human IgG labelling kit (Invitrogen, catalogue number Z25408). Stained hOX40-Jurkat-NF-κB cells were analyzed by flow cytometry, and are depicted as percentage of OX40L-Fc positive cells within the OX40 positive gate (defined using a non-competing anti-OX40 mAb (clone Ber-ACT35, BioLegend catalogue number 350012) in FIG. 89.

For assay [4], the target named is T2, human OX40. Nature of the assay: flow cytometry on hOX40-Jurkat-NF-κB cells. How it is done: (§1) Stained hOX40-Jurkat-NF-κB and cOX40-Jurkat-NF-κB cells were analyzed by flow cytometry using a CytoFLEX (Beckman Coulter), the results of which are depicted in FIGS. 78 and 79, respectively, and summarized in FIG. 80.
Binding of each of the sequence optimized IL-12 ABD fusion proteins to hOX40-Jurkat-NF-κB cells was performed as described in Example 16, the results of which are depicted in FIG. 87 and summarized in FIG. 88.

Assay [5] concerns the target T2, human OX40. The assay is described as follows: cell-based or functional assay.
In assay [6] the target is T2, human OX40. Nature of the assay: flow cytometry on hOX40-Jurkat-NF-κB cells, as in Example 16. How it is done:
as §1
(§2) Sequences for the VH and VL domains of an additional anti-human OX40 antibody (clone 41) are provided in FIG. 112 (SEQ ID NOs: 170 and 171, respectively). To investigate whether clone 41 would be suitable for use within IL-12 ABD fusion proteins, this antibody was recombinantly expressed in bivalent human IgG1 format (termed ‘hG1-clone 41’) and subjected to protein A purification. […] Next, hG1-clone 41 was assessed for its capacity to block the binding of OX40L to hOX40-Jurkat-NF-κB cells, as described in Example 19. […] The capacity of hG1-clone 41 to block OX40L-induced signaling in hOX40-Jurkat-NF-κB cells was also assessed using a similar experimental setup as described in Example 20, the results of which are depicted in FIG. 117. […] Finally, the capacity of hG1-clone 41 to trigger OX40 signaling was assessed in hOX40-Jurkat-NF-κB cells, as described in Example 25.

Assay [7] addresses T1, cynomolgus monkey OX40. Nature of the assay: flow cytometry on cOX40-Jurkat-NF-κB cells, as in Example 16. How it is done:
as §1, §2

B1: mono-mut23-20E5 (Fc fusion)
chain: IWELKKDVYVVELDWYPDAPGEMVVLTCDTPEEDGITWTLDQSSEVLGSGKTLTIQVKEFGDAGQYTCHKGGEVLSHSLLLLHKKEDGIWSTDILKDQKEPKNKTFLRCEAKNYSGRFTCWWLTTISTDLTFSVKSSRGSSDPQGVTCGAATLSAERVRGDNKEYEYSVECQEDSACPAAEESLPIEVMVDAVHKLKYENYTSSFFIRDIIKPDPPKNLQLKPLKNSRQVEVSWEYPDTWSTPHSYFSLTFSVQVQGKSKREKKDRVFTDKTSATVICRKNASISVRAQDRYYSSSWSEWASVPCSGGGGSGGGGSGGGGSGGGGSGGGGSRNLPVATPDPGMFPCLHHSQNLLRAVSNMLQKARQTLEFSPCTSEEIDHEDITKDKTSTVEACLPLELTKNESCLNSRETSFITNGSCLASRKTSFMMALCLSSIYEDLKMYQVEFKTMNAKLLMDPKRQIFLDQNMLAVIDELMQALNFNSETVPQKSSLEEPDFYKTAIKLCILLHAFRIRAVTIDRVMSYLNASGGGGSGGGGSEPKSSDKTHTCPPCPAPEFEGGPSVFLFPPKPKDTLMISRTPEVTCVVVDVSHEDPEVKFNWYVDGVEVHNAKTKPREEQYNSTYRVVSVLTVLHQDWLNGKEYKCKVSNKALPASIEKTISKAKGQPREPQVCTLPPSRDELTKNQVSLSCAVKGFYPSDIAVEWESNGQPENNYKTTPPVLDSDGSFFLVSKLTVDKSRWQQGNVFSCSVMHEALHNHYTQKSLSLSPG
heavy: QVQLVQSGAEVKKPGASVKVSCKASGYTFTSYVMHWVRQAPGQRLEWIGYINPYNDGTKYNEKFKGRATLTSDKSASTAYMELSSLRSEDTAVYYCANYYGSSLSMDYWGQGTLVTVSSASTKGPSVFPLAPSSKSTSGGTAALGCLVKDYFPEPVTVSWNSGALTSGVHTFPAVLQSSGLYSLSSVVTVPSSSLGTQTYICNVNHKPSNTKVDKKVEPKSCDKTHTCPPCPAPEFEGGPSVFLFPPKPKDTLMISRTPEVTCVVVDVSHEDPEVKFNWYVDGVEVHNAKTKPREEQYNSTYRVVSVLTVLHQDWLNGKEYKCKVSNKALPASIEKTISKAKGQPREPQVYTLPPCRDELTKNQVSLWCLVKGFYPSDIAVEWESNGQPENNYKTTPPVLDSDGSFFLYSKLTVDKSRWQQGNVFSCSVMHEALHNHYTQKSLSLSPG
light: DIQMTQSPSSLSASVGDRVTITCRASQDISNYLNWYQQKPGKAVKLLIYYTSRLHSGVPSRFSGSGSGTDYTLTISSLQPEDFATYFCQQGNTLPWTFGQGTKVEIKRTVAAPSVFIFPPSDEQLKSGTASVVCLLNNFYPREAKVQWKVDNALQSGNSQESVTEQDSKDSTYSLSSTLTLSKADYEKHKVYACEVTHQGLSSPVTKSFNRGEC
notes: Monovalent for OX40
Consider B1, for which, in the assay with cynomolgus monkey OX40 [1], the “fold difference of EC50 against hOX40-Jurkat-NF-κB cells” value was at most 2 fold. Moreover, the binding result in the assay with human OX40 [2] is “binds”.

B2: mono-mut23-12H3 (Fc fusion)
chain: B1 chain
heavy: QVQLVQSGAEVKKPGSSVKVSCKASGYTFKDYTMHWVRQAPGQGLEWIGGIYPNNGGSTYNQNFKDRVTLTADKSTSTAYMELSSLRSEDTAVYYCARMGYHGPHLDFDVWGQGTTVTVSSASTKGPSVFPLAPSSKSTSGGTAALGCLVKDYFPEPVTVSWNSGALTSGVHTFPAVLQSSGLYSLSSVVTVPSSSLGTQTYICNVNHKPSNTKVDKKVEPKSCDKTHTCPPCPAPEFEGGPSVFLFPPKPKDTLMISRTPEVTCVVVDVSHEDPEVKFNWYVDGVEVHNAKTKPREEQYNSTYRVVSVLTVLHQDWLNGKEYKCKVSNKALPASIEKTISKAKGQPREPQVYTLPPCRDELTKNQVSLWCLVKGFYPSDIAVEWESNGQPENNYKTTPPVLDSDGSFFLYSKLTVDKSRWQQGNVFSCSVMHEALHNHYTQKSLSLSPG
light: DIQMTQSPSSLSASVGDRVTITCKASQDVGAAVAWYQQKPGKAPKLLIYWASTRHTGVPSRFSGSGSGTDFTLTISSLQPEDFATYYCQQYINYPLTFGGGTKVEIKRTVAAPSVFIFPPSDEQLKSGTASVVCLLNNFYPREAKVQWKVDNALQSGNSQESVTEQDSKDSTYSLSSTLTLSKADYEKHKVYACEVTHQGLSSPVTKSFNRGEC
notes: Monovalent for OX40
For orientation: IC50 means the point on the concentration scale where inhibition reaches its midpoint. As usually defined, the EC50 is the concentration giving half of the maximal effect. As to B2, the “fold difference of EC50 against hOX40-Jurkat-NF-κB cells” value with cynomolgus monkey OX40 [1] is at most 2 fold. For the same molecule, the IC50 in the assay with human OX40 [3] stood at 227 nM. In the assay with human OX40 [4], this molecule yielded an EC50 of 13.6 nM.

B3: mono-mut23-20E5_V4 (Fc fusion)
chain: B1 chain
heavy: B1 heavy with D56E
light: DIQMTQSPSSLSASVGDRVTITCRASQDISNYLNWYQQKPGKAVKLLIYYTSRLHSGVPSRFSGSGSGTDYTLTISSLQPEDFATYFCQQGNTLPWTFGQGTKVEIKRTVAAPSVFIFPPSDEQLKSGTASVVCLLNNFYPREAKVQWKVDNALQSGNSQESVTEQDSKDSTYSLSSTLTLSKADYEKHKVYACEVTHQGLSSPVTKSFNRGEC
As to B3, in the assay with human OX40 [5], the “IFNγ release by conventional CD4+ T cells (AlphaLISA), EC50, two PBMC donors” value was 0.0277 nM and 0.0195 nM; the “IFNγ release by induced Treg cells (AlphaLISA), EC50, two PBMC donors” value is 0.0057 nM and 0.0138 nM.

B4: hG1-clone 41 (antibody, V domains shown)
VH: QVQLVESGGGVVQPGRSLRLSCAASGFTFSSYGMHWVRQAPGKGLEWVALISYDGSNKIYTDSVKGRFTISRDNSKNTLYLQMNSLRPEDTAVYYCAKGREIVATYFDYWGQGTLVTVSS
VL: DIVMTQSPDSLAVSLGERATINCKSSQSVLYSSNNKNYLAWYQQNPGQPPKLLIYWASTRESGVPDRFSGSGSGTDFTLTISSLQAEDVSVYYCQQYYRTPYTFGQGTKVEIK
notes: Recombinantly expressed in bivalent human IgG1 format
For B4, the EC50 with human OX40 [6] was found to be 1.1 nM; with cynomolgus monkey OX40 [7], 1 nM.
